Blank lines part the entries; values can stand above or below the sequence they belong to.
Key:
HLA-A*29:02 [1] = assay: IEDB peptide-MHC binding, purified MHC/direct/fluorescence; filed as Kd, often an IC50 or EC50 that approximates it; ≥ and ≤ were set here for values at or beyond the usual limits of such assays; settings: source organism: Ravn virus - Ravn, Kenya, 1987
HLA-A*69:01 = assay: as above
HLA-B*58:01 = assay: as above
HLA-B*18:01 [2] = assay: as above; settings: source organism: Ravn virus - Ravn, Kenya, 1987
HLA-B*51:01 [3] = assay: as above; settings: source organism: Ravn virus - Ravn, Kenya, 1987
HLA-B*44:02 = assay: as above
HLA-B*15:01 [4] = assay: as above
HLA-B*57:01 [5] = assay: as above; settings: source organism: Ravn virus - Ravn, Kenya, 1987
HLA-A*02:12 [6] = assay: as above; settings: source organism: Ravn virus - Ravn, Kenya, 1987
HLA-B*07:02 = assay: as above
HLA-A*30:01 = assay: as above
HLA-A*02:01 [7] = assay: as above
HLA-B*15:17 [8] = assay: as above; settings: source organism: Ravn virus - Ravn, Kenya, 1987
HLA-B*40:01 = assay: as above
HLA-B*27:05 [9] = assay: as above
HLA-B*08:01 = assay: as above
HLA-A*24:03 [10] = assay: as above
HLA-A*26:01 [11] = assay: as above
HLA-A*03:01 [12] = assay: as above
HLA-A*02:06 = assay: IEDB peptide-MHC binding, purified MHC/competitive/fluorescence; filed as Kd, often an IC50 or EC50 that approximates it; ≥ and ≤ were set here for values at or beyond the usual limits of such assays
HLA-A*02:01 [13] = assay: as above
HLA-A*24:02 = assay: as above
HLA-A*01:01 = assay: IEDB peptide-MHC binding, purified MHC/direct/fluorescence; filed as Kd, often an IC50 or EC50 that approximates it; ≥ and ≤ were set here for values at or beyond the usual limits of such assays
HLA-A*11:01 = assay: as above
HLA-A*31:01 = assay: as above
HLA-B*27:05 [14] = assay: IEDB peptide-MHC binding, purified MHC/competitive/fluorescence; filed as Kd, often an IC50 or EC50 that approximates it; ≥ and ≤ were set here for values at or beyond the usual limits of such assays
HLA-B*35:01 = assay: IEDB peptide-MHC binding, purified MHC/direct/fluorescence; filed as Kd, often an IC50 or EC50 that approximates it; ≥ and ≤ were set here for values at or beyond the usual limits of such assays
HLA-A*23:01 = assay: IEDB peptide-MHC binding, purified MHC/competitive/fluorescence; filed as Kd, often an IC50 or EC50 that approximates it; ≥ and ≤ were set here for values at or beyond the usual limits of such assays; settings: source organism: Vibrio antiquarius
HLA-A*29:02 [15] = assay: as above; settings: source organism: Vibrio antiquarius
HLA-B*46:01 = assay: as above; settings: source organism: Vibrio antiquarius
HLA-B*18:01 [16] = assay: as above; settings: source organism: Vibrio antiquarius
HLA-B*51:01 [17] = assay: as above; settings: source organism: Vibrio antiquarius
HLA-B*27:03 = assay: as above; settings: source organism: Vibrio antiquarius
HLA-B*15:01 [18] = assay: as above; settings: source organism: Vibrio antiquarius
HLA-A*24:03 [19] = assay: as above; settings: source organism: Vibrio antiquarius
HLA-B*57:01 [20] = assay: as above; settings: source organism: Vibrio antiquarius
HLA-A*02:12 [21] = assay: as above; settings: source organism: Vibrio antiquarius
HLA-A*26:01 [22] = assay: as above; settings: source organism: Vibrio antiquarius
HLA-B*39:01 = assay: as above; settings: source organism: Vibrio antiquarius
HLA-B*15:17 [23] = assay: as above; settings: source organism: Vibrio antiquarius
HLA-A*03:01 [24] = assay: as above; settings: source organism: Vibrio antiquarius
[25] = source organism: Marburg virus - Musoke, Kenya, 1980
[26] = source organism: Ravn virus - Ravn, Kenya, 1987
[27] = source organism: Yersinia pestis Nepal516
[28] = source organism: Yersinia pestis
[29] = source organism: Giardia lamblia ATCC 50803
[30] = source organism: Shigella boydii Sb227
[31] = source organism: Salmonella enterica
[32] = source organism: Escherichia coli
[33] = source organism: Corynebacterium glutamicum

Sequence: NLFDWMHFL
Kd (HLA-A*29:02 [1]): 2.42 µM
Kd (HLA-A*69:01; [25]): 0.0025 µM
Kd (HLA-B*58:01; [26]): ≥ 20 µM
Kd (HLA-B*18:01 [2]): ≥ 20 µM
Kd (HLA-B*51:01 [3]): ≥ 20 µM
Kd (HLA-B*44:02; [26]): ≥ 20 µM
Kd (HLA-B*15:01 [4]; [26]): ≥ 20 µM
Kd (HLA-B*57:01 [5]): ≥ 20 µM
Kd (HLA-A*02:12 [6]): 0.006 µM
Kd (HLA-B*07:02; [26]): ≥ 20 µM
Kd (HLA-A*30:01; [26]): ≥ 20 µM
Kd (HLA-A*02:01 [7]; [25]): ≤ 0.001 µM
Kd (HLA-B*15:17 [8]): ≥ 20 µM
Kd (HLA-B*40:01; [26]): ≥ 20 µM

Sequence: AFASLQDML
Kd (HLA-B*27:05 [9]; [27]): ≥ 20 µM
Kd (HLA-B*08:01; [27]): ≥ 20 µM
Kd (HLA-A*69:01; [27]): ≥ 20 µM
Kd (HLA-B*58:01; [27]): ≥ 20 µM
Kd (HLA-B*44:02; [27]): ≥ 20 µM
Kd (HLA-B*15:01 [4]; [27]): ≥ 20 µM
Kd (HLA-A*24:03 [10]; [28]): 1.28 µM
Kd (HLA-B*07:02; [27]): ≥ 20 µM
Kd (HLA-A*26:01 [11]; [27]): ≥ 20 µM
Kd (HLA-A*30:01; [28]): ≥ 20 µM
Kd (HLA-A*02:01 [7]; [27]): ≥ 20 µM
Kd (HLA-A*03:01 [12]; [28]): ≥ 20 µM
Kd (HLA-B*40:01; [27]): ≥ 20 µM

Sequence: RQVCFFSAT
Kd (HLA-A*02:06; [29]): 0.0063 µM
Kd (HLA-A*02:01 [13]; [29]): 3.27 µM

Kd (HLA-A*24:02; source organism: Escherichia coli E22): ≤ 0.0001 µM
Sequence: IYLRRYFEI

Sequence: GLDDSALDA
Kd (HLA-A*02:06; [30]): 2.1 µM
Kd (HLA-A*02:01 [13]; [30]): 0.402 µM

Sequence: ALMRWRHPR
Kd (HLA-A*01:01; [31]): ≥ 20 µM
Kd (HLA-B*27:05 [9]; [32]): 0.237 µM
Kd (HLA-B*08:01; [31]): ≥ 20 µM
Kd (HLA-A*69:01; [31]): ≥ 20 µM
Kd (HLA-B*58:01; [31]): ≥ 20 µM
Kd (HLA-B*44:02; [31]): ≥ 20 µM
Kd (HLA-B*15:01 [4]; [31]): ≥ 20 µM
Kd (HLA-A*24:03 [10]; [31]): ≥ 20 µM
Kd (HLA-B*07:02; [31]): ≥ 20 µM
Kd (HLA-A*26:01 [11]; [31]): ≥ 20 µM
Kd (HLA-A*30:01; [32]): 0.00461 µM
Kd (HLA-A*02:01 [7]; [32]): 9.62 µM
Kd (HLA-A*11:01; [32]): 0.00936 µM
Kd (HLA-A*31:01; [32]): 0.00544 µM
Kd (HLA-A*03:01 [12]; [32]): 0.0994 µM
Kd (HLA-B*40:01; [31]): ≥ 20 µM

Kd (HLA-B*27:05 [14]; source organism: Escherichia coli str. K-12 substr. MG1655): 0.285 µM
Sequence: GRQAPTADV

Sequence: GRADTKILF
Kd (HLA-B*27:05 [14]; source organism: Influenza A virus (A/swine/Hong Kong/4/1976(H3N2))): 0.0741 µM

Kd (HLA-A*01:01; [33]): ≥ 20 µM
Kd (HLA-B*27:05 [9]; [33]): ≥ 20 µM
Kd (HLA-B*08:01; [33]): 2.72 µM
Kd (HLA-A*69:01; [33]): ≥ 20 µM
Kd (HLA-B*58:01; [33]): ≥ 20 µM
Kd (HLA-B*15:01 [4]; [33]): ≥ 20 µM
Kd (HLA-A*24:03 [10]; [33]): 13.1 µM
Kd (HLA-B*07:02; [33]): 0.0536 µM
Kd (HLA-A*26:01 [11]; [33]): ≥ 20 µM
Kd (HLA-A*30:01; [33]): ≥ 10 µM
Kd (HLA-A*02:01 [7]; [33]): ≥ 20 µM
Kd (HLA-A*11:01; [33]): ≥ 20 µM
Kd (HLA-A*31:01; [33]): ≥ 20 µM
Kd (HLA-B*35:01; [33]): 0.893 µM
Kd (HLA-A*03:01 [12]; [33]): ≥ 20 µM
Kd (HLA-B*40:01; [33]): ≥ 20 µM
Sequence: IVAWTRTAT

Kd (HLA-A*01:01; [32]): ≥ 20 µM
Kd (HLA-B*27:05 [9]; [32]): ≥ 20 µM
Kd (HLA-B*08:01; [32]): 0.849 µM
Kd (HLA-A*69:01; [32]): ≥ 20 µM
Kd (HLA-B*58:01; [32]): ≥ 20 µM
Kd (HLA-B*15:01 [4]; [32]): 3.73 µM
Kd (HLA-A*24:03 [10]; [32]): ≥ 5 µM
Kd (HLA-B*07:02; [32]): 0.0276 µM
Kd (HLA-A*26:01 [11]; [32]): ≥ 20 µM
Kd (HLA-A*30:01; [32]): ≥ 10 µM
Kd (HLA-A*02:01 [7]; [32]): ≥ 20 µM
Kd (HLA-A*11:01; [32]): ≥ 20 µM
Kd (HLA-A*31:01; [32]): ≥ 20 µM
Kd (HLA-B*35:01; [32]): 0.0256 µM
Kd (HLA-A*03:01 [12]; [32]): ≥ 20 µM
Kd (HLA-B*40:01; [32]): ≥ 20 µM
Sequence: LAAPCRNAL

Sequence: EYARQVQMI
Kd (HLA-A*24:02; source organism: Vibrio vulnificus YJ016): ≤ 0.001 µM

Sequence: PYPYLFYKF
Kd (HLA-A*24:02; source organism: Vibrio cholerae B33): ≤ 0.0001 µM

Sequence: VTGCASLYV
Kd (HLA-A*23:01): ≥ 20 µM
Kd (HLA-A*29:02 [15]): ≥ 20 µM
Kd (HLA-B*46:01): ≥ 20 µM
Kd (HLA-B*18:01 [16]): ≥ 20 µM
Kd (HLA-B*51:01 [17]): ≥ 20 µM
Kd (HLA-B*27:03): ≥ 20 µM
Kd (HLA-B*15:01 [18]): ≥ 20 µM
Kd (HLA-A*24:03 [19]): ≥ 20 µM
Kd (HLA-B*57:01 [20]): ≥ 20 µM
Kd (HLA-A*02:12 [21]): 0.0368 µM
Kd (HLA-A*26:01 [22]): ≥ 20 µM
Kd (HLA-A*02:01 [13]; source organism: Vibrio antiquarius): 0.0463 µM
Kd (HLA-B*39:01): ≥ 20 µM
Kd (HLA-B*15:17 [23]): ≥ 20 µM
Kd (HLA-A*03:01 [24]): ≥ 20 µM

Sequence: IYNTVVLTI
Kd (HLA-A*24:02; source organism: Vibrio parahaemolyticus AQ3810): 0.0004 µM

Reference: the Immune Epitope Database (IEDB)
